# US20140088019A1
# Bridges are numbered along the chain shown (N, C = ends). Where no end group is shown, it is not given here.
# B1: Construct 12: ELP-MRD fusion protein with a constrained rhAng2-targeting peptide (ANGd) sandwiched between ELP repeat modules (designed binder, not shown: small tags and cut ends)
# chain: LWDDCYSFPNPPHCYNSP
# modifications: disulfide 5-14 (inferred); not fully specified (N-terminus, C-terminus); also: peptide sandwiched between ELP repeat modules, ELP composition not given here
# Target: recombinant human angiopoietin-2 (human) (UniProt O15123)
# UniProt O15123, sequence (O15123 19-496 limits assumed): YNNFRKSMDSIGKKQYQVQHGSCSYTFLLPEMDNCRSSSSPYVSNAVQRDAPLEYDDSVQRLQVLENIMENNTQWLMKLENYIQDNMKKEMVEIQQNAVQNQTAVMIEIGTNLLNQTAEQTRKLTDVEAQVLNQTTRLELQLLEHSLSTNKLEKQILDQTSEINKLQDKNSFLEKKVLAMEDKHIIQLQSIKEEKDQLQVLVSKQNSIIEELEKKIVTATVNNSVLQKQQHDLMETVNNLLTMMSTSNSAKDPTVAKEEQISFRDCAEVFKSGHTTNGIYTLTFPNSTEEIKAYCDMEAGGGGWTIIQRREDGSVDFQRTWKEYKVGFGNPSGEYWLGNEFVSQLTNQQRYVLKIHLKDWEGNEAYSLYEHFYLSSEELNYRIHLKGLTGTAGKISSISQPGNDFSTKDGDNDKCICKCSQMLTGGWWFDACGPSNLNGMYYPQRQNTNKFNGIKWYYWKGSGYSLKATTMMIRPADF
# Experiment: direct ELISA, rhAng2 coated on microplate wells, detection by HRP-anti-His tag antibody, OD450
binder,measurement,value
B1,EC50 (read off the curve),8 nM
